Assay [1] has as its target wild type Elongin B (rat, UniProt P62870). Description: refolded with wild type Elongin B; TSK DEAE-NPR HPLC, SDS-PAGE, silver staining. The method, then:
Figure 10A: FIG. 10A. […] Aliquots of the indicated column fractions were analyzed by SDS-PAGE, and proteins were visualized by silver staining. Figure 10B: FIG. 10B. N-terminal, C-terminal, and internal Elongin C deletion mutants were assayed for their abilities to form Elongin BC complexes as described.
~6 µg of Elongin B was mixed with ~6 µg of either wild type or mutant Elongin C and diluted 5-fold with 40 mM Hepes-NaOH (pH 7.9), 100 mM KCl, 2 mM DTT, 50 µM ZnSO_4, 0.1 mM EDTA, and 10% (v/v) glycerol. After incubation for 90 min on ice, the mixtures were dialyzed at 4° C. overnight against 40 mM Tris-HCl (pH 7.9), 0.1 mM EDTA, 10% (v/v) glycerol, and 40 mM KCl. Following dialysis, the mixtures were centrifuged at 60,000×g for 15 min at 4° C. The resulting supernatants were applied to TSK DEAE-NPR columns (35 mm×4.6 mm, Toso-Haas) pre-equilibrated in 40 mM Tris-HCl (pH 7.9), 0.1 mM EDTA, 1 mM DTT, 10% (v/v) glycerol, and 40 mM KCl and fractionated using a SMART microchromatography system (Pharmacia) at 8° C. The columns were eluted at 0.3 ml/min with a 3 ml linear gradient from 0.04 to 0.5M KCl in 40 mM Tris-HCl (pH 7.9), 0.1 mM EDTA, 1 mM DTT, and 10% (v/v) glycerol. Aliquots of each column fraction were analyzed by 10% Tris-Tricine SDS-polyacrylamide gel electrophoresis, and the proteins were visualized by silver staining.

For assay [2], the target named is T1, Elongin BC complex (wild type rat Elongin B and C) (rat, UniProt P62870).
T1 chain 1: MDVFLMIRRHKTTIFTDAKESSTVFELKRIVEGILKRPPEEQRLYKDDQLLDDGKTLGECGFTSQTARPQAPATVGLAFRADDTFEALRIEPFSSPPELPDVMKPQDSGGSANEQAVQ
T1 chain 2: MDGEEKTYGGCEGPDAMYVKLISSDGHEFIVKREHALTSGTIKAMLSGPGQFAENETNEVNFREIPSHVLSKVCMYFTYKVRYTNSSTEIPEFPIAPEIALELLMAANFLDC
Description: refolded with wild type Elongin B and C; TSK SP-NPR HPLC, SDS-PAGE, silver staining.

B1: Elongin C internal deletion mutant C(Δ31-40) (other)
chain: MDGEEKTYGGCEGPDAMYVKLISSDGHEFITIKAMLSGPGQFAENETNEVNFREIPSHVLSKVCMYFTYKVRYTNSSTEIPEFPIAPEIALELLMAANFLDC
On to B1, for which the binding result in assay [1] is on record as “binds”.

B2: Elongin C deletion mutant C(1-83) (other)
chain: MDGEEKTYGGCEGPDAMYVKLISSDGHEFIVKREHALTSGTIKAMLSGPGQFAENETNEVNFREIPSHVLSKVCMYFTYKVRY
As for B2, the binding result in assay [1] is given as “binds”.

B3: Elongin C deletion mutant C(15-112) (other)
chain: DAMYVKLISSDGHEFIVKREHALTSGTIKAMLSGPGQFAENETNEVNFREIPSHVLSKVCMYFTYKVRYTNSSTEIPEFPIAPEIALELLMAANFLDC
With B3, the binding result in assay [1] is reported as “binds”.

B4: Elongin A deletion mutant A(1-535) (other)
chain: MAAESALQVVEKLQARLAANPDPKKLLKYLKKLSVLPITVDILVETGVGKTVNSFRKHEQVGNFARDLVAQWKKLVPVERNNEAEDQDFEKSNSRKRPRDVPQQEEEAEGNYQESWQASGSQPYSPEHRQKKHRKLPELERPHKVAHGHERRDERKRCHKVSPPYSSDPESSDYGHVQSPPPSSPHQMYTDLSRSPEMDQEPIVSHPKPGKVHSNTFQDRLGVSHLGEHQGKGAVSQNKPHKSSHKEKRPVDARGDEKSSVMGREKSHKASSKEESRRLLSEDSAKEKLPSSVVKKEKDREGNSLKKKLSPALDVASDNHFKKPKHKDSEKIKSDKNKQSVDSVDSGRGTGDPLPRAKDKVPNNLKAQEGKVRTNSDRKSPGSLPKVEEMDMDDEFEQPTMSFESYLSYDQPRKKKKKVVKTSGTALGEKGLKKKDSKSTSKNLNSAQKLPKANENKSDKLQPAGAEPTRPRKVPTDVLPALPDIPLPAIQTNYRPLPSLELISSFQPKRKAFSSPQEEEEAGFTGRRMNSKMQV
Turning to B4, the binding result in assay [2] is listed as “no binding”.

B5: Elongin A internal deletion mutant Δ546-565 (other)
chain: MAAESALQVVEKLQARLAANPDPKKLLKYLKKLSVLPITVDILVETGVGKTVNSFRKHEQVGNFARDLVAQWKKLVPVERNNEAEDQDFEKSNSRKRPRDVPQQEEEAEGNYQESWQASGSQPYSPEHRQKKHRKLPELERPHKVAHGHERRDERKRCHKVSPPYSSDPESSDYGHVQSPPPSSPHQMYTDLSRSPEMDQEPIVSHPKPGKVHSNTFQDRLGVSHLGEHQGKGAVSQNKPHKSSHKEKRPVDARGDEKSSVMGREKSHKASSKEESRRLLSEDSAKEKLPSSVVKKEKDREGNSLKKKLSPALDVASDNHFKKPKHKDSEKIKSDKNKQSVDSVDSGRGTGDPLPRAKDKVPNNLKAQEGKVRTNSDRKSPGSLPKVEEMDMDDEFEQPTMSFESYLSYDQPRKKKKKVVKTSGTALGEKGLKKKDSKSTSKNLNSAQKLPKANENKSDKLQPAGAEPTRPRKVPTDVLPALPDIPLPAIQTNYRPLPSLELISSFQPKRKAFSSPQEEEEAGFTGRRMNSKMQVYSGSKCAYLPFEVGGVPYSVLEPVLERCTPDQLYRIEECNHVLIEETDQLWKVHCHRDFKEERPEEYESWREMYLRLQDAREQRLRLLTNNIRSAHANKPKGRQAKMAFVNSVAKPPRDVRRRQEKFGTGGAAVPEKVRIKPAPYTTGSSHVPASNSSSSFHSSPEELAYEGPSTSSAHLAPVASSSVSYDPRKPAVKKIAPMMAKTIKAFKNRFSRR
B5: in assay [2], the binding result is recorded as “no binding”.

B6: Elongin A point mutant L550S (other)
chain: MAAESALQVVEKLQARLAANPDPKKLLKYLKKLSVLPITVDILVETGVGKTVNSFRKHEQVGNFARDLVAQWKKLVPVERNNEAEDQDFEKSNSRKRPRDVPQQEEEAEGNYQESWQASGSQPYSPEHRQKKHRKLPELERPHKVAHGHERRDERKRCHKVSPPYSSDPESSDYGHVQSPPPSSPHQMYTDLSRSPEMDQEPIVSHPKPGKVHSNTFQDRLGVSHLGEHQGKGAVSQNKPHKSSHKEKRPVDARGDEKSSVMGREKSHKASSKEESRRLLSEDSAKEKLPSSVVKKEKDREGNSLKKKLSPALDVASDNHFKKPKHKDSEKIKSDKNKQSVDSVDSGRGTGDPLPRAKDKVPNNLKAQEGKVRTNSDRKSPGSLPKVEEMDMDDEFEQPTMSFESYLSYDQPRKKKKKVVKTSGTALGEKGLKKKDSKSTSKNLNSAQKLPKANENKSDKLQPAGAEPTRPRKVPTDVLPALPDIPLPAIQTNYRPLPSLELISSFQPKRKAFSSPQEEEEAGFTGRRMNSKMQVYSGSKCAYLPKMMTSHQQCIRVLKNNIDSIFEVGGVPYSVLEPVLERCTPDQLYRIEECNHVLIEETDQLWKVHCHRDFKEERPEEYESWREMYLRLQDAREQRLRLLTNNIRSAHANKPKGRQAKMAFVNSVAKPPRDVRRRQEKFGTGGAAVPEKVRIKPAPYTTGSSHVPASNSSSSFHSSPEELAYEGPSTSSAHLAPVASSSVSYDPRKPAVKKIAPMMAKTIKAFKNRFSRR
Consider B6, for which, in assay [2], the binding result is recorded as “no binding”.

B7: Elongin A internal deletion mutant Δ481-520 (other)
chain: MAAESALQVVEKLQARLAANPDPKKLLKYLKKLSVLPITVDILVETGVGKTVNSFRKHEQVGNFARDLVAQWKKLVPVERNNEAEDQDFEKSNSRKRPRDVPQQEEEAEGNYQESWQASGSQPYSPEHRQKKHRKLPELERPHKVAHGHERRDERKRCHKVSPPYSSDPESSDYGHVQSPPPSSPHQMYTDLSRSPEMDQEPIVSHPKPGKVHSNTFQDRLGVSHLGEHQGKGAVSQNKPHKSSHKEKRPVDARGDEKSSVMGREKSHKASSKEESRRLLSEDSAKEKLPSSVVKKEKDREGNSLKKKLSPALDVASDNHFKKPKHKDSEKIKSDKNKQSVDSVDSGRGTGDPLPRAKDKVPNNLKAQEGKVRTNSDRKSPGSLPKVEEMDMDDEFEQPTMSFESYLSYDQPRKKKKKVVKTSGTALGEKGLKKKDSKSTSKNLNSAQKLPKANENKSDKLQPAGAEPTRPRKVPTDVLPEAGFTGRRMNSKMQVYSGSKCAYLPKMMTLHQQCIRVLKNNIDSIFEVGGVPYSVLEPVLERCTPDQLYRIEECNHVLIEETDQLWKVHCHRDFKEERPEEYESWREMYLRLQDAREQRLRLLTNNIRSAHANKPKGRQAKMAFVNSVAKPPRDVRRRQEKFGTGGAAVPEKVRIKPAPYTTGSSHVPASNSSSSFHSSPEELAYEGPSTSSAHLAPVASSSVSYDPRKPAVKKIAPMMAKTIKAFKNRFSRR
Take B7: the binding result in assay [2] is “binds”.

B8: Elongin A internal deletion mutant Δ441-480 (other)
chain: MAAESALQVVEKLQARLAANPDPKKLLKYLKKLSVLPITVDILVETGVGKTVNSFRKHEQVGNFARDLVAQWKKLVPVERNNEAEDQDFEKSNSRKRPRDVPQQEEEAEGNYQESWQASGSQPYSPEHRQKKHRKLPELERPHKVAHGHERRDERKRCHKVSPPYSSDPESSDYGHVQSPPPSSPHQMYTDLSRSPEMDQEPIVSHPKPGKVHSNTFQDRLGVSHLGEHQGKGAVSQNKPHKSSHKEKRPVDARGDEKSSVMGREKSHKASSKEESRRLLSEDSAKEKLPSSVVKKEKDREGNSLKKKLSPALDVASDNHFKKPKHKDSEKIKSDKNKQSVDSVDSGRGTGDPLPRAKDKVPNNLKAQEGKVRTNSDRKSPGSLPKVEEMDMDDEFEQPTMSFESYLSYDQPRKKKKKVVKTSGTALGEKGLKKKDSKSTALPDIPLPAIQTNYRPLPSLELISSFQPKRKAFSSPQEEEEAGFTGRRMNSKMQVYSGSKCAYLPKMMTLHQQCIRVLKNNIDSIFEVGGVPYSVLEPVLERCTPDQLYRIEECNHVLIEETDQLWKVHCHRDFKEERPEEYESWREMYLRLQDAREQRLRLLTNNIRSAHANKPKGRQAKMAFVNSVAKPPRDVRRRQEKFGTGGAAVPEKVRIKPAPYTTGSSHVPASNSSSSFHSSPEELAYEGPSTSSAHLAPVASSSVSYDPRKPAVKKIAPMMAKTIKAFKNRFSRR
In the case of B8, the binding result in assay [2] is reported as “binds”.

B9: Elongin C deletion mutant C(1-97) (other)
chain: MDGEEKTYGGCEGPDAMYVKLISSDGHEFIVKREHALTSGTIKAMLSGPGQFAENETNEVNFREIPSHVLSKVCMYFTYKVRYTNSSTEIPEFPIAP
Consider B9, for which, in assay [1], the binding result is “binds”.

B10: Elongin A internal deletion mutant Δ521-545 (other)
chain: MAAESALQVVEKLQARLAANPDPKKLLKYLKKLSVLPITVDILVETGVGKTVNSFRKHEQVGNFARDLVAQWKKLVPVERNNEAEDQDFEKSNSRKRPRDVPQQEEEAEGNYQESWQASGSQPYSPEHRQKKHRKLPELERPHKVAHGHERRDERKRCHKVSPPYSSDPESSDYGHVQSPPPSSPHQMYTDLSRSPEMDQEPIVSHPKPGKVHSNTFQDRLGVSHLGEHQGKGAVSQNKPHKSSHKEKRPVDARGDEKSSVMGREKSHKASSKEESRRLLSEDSAKEKLPSSVVKKEKDREGNSLKKKLSPALDVASDNHFKKPKHKDSEKIKSDKNKQSVDSVDSGRGTGDPLPRAKDKVPNNLKAQEGKVRTNSDRKSPGSLPKVEEMDMDDEFEQPTMSFESYLSYDQPRKKKKKVVKTSGTALGEKGLKKKDSKSTSKNLNSAQKLPKANENKSDKLQPAGAEPTRPRKVPTDVLPALPDIPLPAIQTNYRPLPSLELISSFQPKRKAFSSPQEEEKMMTLHQQCIRVLKNNIDSIFEVGGVPYSVLEPVLERCTPDQLYRIEECNHVLIEETDQLWKVHCHRDFKEERPEEYESWREMYLRLQDAREQRLRLLTNNIRSAHANKPKGRQAKMAFVNSVAKPPRDVRRRQEKFGTGGAAVPEKVRIKPAPYTTGSSHVPASNSSSSFHSSPEELAYEGPSTSSAHLAPVASSSVSYDPRKPAVKKIAPMMAKTIKAFKNRFSRR
Take B10: the binding result in assay [2] was “binds”.

B11: Elongin C deletion mutant C(19-112) (other)
chain: VKLISSDGHEFIVKREHALTSGTIKAMLSGPGQFAENETNEVNFREIPSHVLSKVCMYFTYKVRYTNSSTEIPEFPIAPEIALELLMAANFLDC
Regarding B11, the binding result in assay [1] is recorded as “binds”.

Values taken from patent publication US6084068, “Elongin A and C functional domains” (Oklahoma Medical Research Foundation, dated 2000).
